Measured values published in paper PMC8792006, “Engineering the stambomycin modular polyketide synthase yields 37-membered mini-stambomycins” (Nature Communications, 2022).

T1: ^NDD5 (N-terminal docking domain of stambomycin PKS subunit Pks5) (Streptomyces ambofaciens ATCC23877)
T1 chain: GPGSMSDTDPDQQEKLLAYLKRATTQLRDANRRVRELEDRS

T2: ^NDD9 Val (N-terminal docking domain of stambomycin PKS subunit Pks9, version with the Val start site) (Streptomyces ambofaciens ATCC23877)
T2 chain: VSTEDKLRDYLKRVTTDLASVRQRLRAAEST

T3: ^NDD9 Met (N-terminal docking domain of stambomycin PKS subunit Pks9, version with the Met start site) (Streptomyces ambofaciens ATCC23877)
T3 chain: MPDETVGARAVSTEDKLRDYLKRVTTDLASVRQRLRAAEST


Columns and labels:
[1] = molecular target: the molecule itself; assay: SEC-MALS; Superdex75 10/300, 20 °C, 0.5 mL min^-1, 20 mM HEPES, 100 mM NaCl, 0.5 mM TCEP, pH 7.5; each docking domain alone
[2] = molecular target: T1, ^NDD5 (N-terminal docking domain of …); assay: ITC; ^CDD (700 μM) in the syringe titrated into the ^NDD in the cell (^NDD5 70 μM; ^NDD9 Met 80 μM; ^NDD9 Val 120 μM); 20 °C; buffer GF (20 mM HEPES, 100 mM NaCl, 0.5 mM TCEP, pH 7.5); one-site binding model; two independent titrations; settings: both partners purified
[3] = molecular target: T2, ^NDD9 Val (N-terminal docking domain of …); assay: as above; settings: both partners purified
[4] = molecular target: T3, ^NDD9 Met (N-terminal docking domain of …); assay: as above; settings: both partners purified

Row | Binder | stoichiometry N [1] | Kd [2] [µM] | stoichiometry N [2] | Kd [3] [µM] | stoichiometry N [3] | Kd [4] [µM] | stoichiometry N [4]
1 | ^CDD4 wt (C-terminal docking domain of stambomycin PKS subunit Pks4) (domain or fragment) GPGSYADRLLAELARLEADLTRMDGDEEDRTRLAARLRALADRCQGERTRRDDNLDAASIEEVFDLLDTEFETP | 2 | 14.5 ± 0.9 | 2 monomeric ^NDDs per homodimeric ^CDD |  |  |  | 
2 | ^CDD4 SDM (C-terminal docking domain of Pks4 with 3 specificity-code residues mutated to match ^CDD8) (domain or fragment) GPGSYADRLLAELARLEADLTRMDGDEEDRTRLAARLRALADRCQGERTRRDDNLDAASIDEVFDLIDTELETP | 2 |  |  |  |  |  | 
3 | ^CDD4 helix swap (C-terminal docking domain of Pks4 with its docking α-helix exchanged for that of ^CDD8) (domain or fragment) GPGSYADRLLAELARLEADLTRMDGDEEDRTRLAARLRALADRCQGERTRRDDNLDAADDDNLFAFIDNELGA | 2 |  |  | 21 ± 0.3 |  |  | 
4 | ^CDD8 (C-terminal docking domain of stambomycin PKS subunit Pks8) (domain or fragment) GPGSYGPAALLADLDRLDAALAGTGPGDETRSRVISRLHALLARHDTADGSGLVTAAGNLDAADDDNLFAFIDNELGA | 2 |  |  | 22 ± 1 | 2 monomeric ^NDDs per homodimeric ^CDD | 33 ± 2 | 2 monomeric ^NDDs per homodimeric ^CDD
